Experimental data published in publication PMC5207143.

Legend:
[1] = target: human FcγRIIB receptor (on transfected Expi293F cells) (human) (UniProt P31994); test: flow cytometry on cells; Expi293F cells transiently transfected with a human Fcγ receptor, 48 h after transfection; 1 to 10000 ng/ml test antibody, 1.5 h at 4 °C; R-phycoerythrin anti-human IgG secondary antibody; EC50 by nonlinear regression of mean fluorescence
[2] = target: human FcγRIIA receptor, Arg131 allotype (on transfected Expi293F cells) (human); test: as above
[3] = target: FcγRIIB on Raji cells (human (endogenous in Raji)) (UniProt P31994)
[4] = target: OX40SF2IgG1E345R/E430G/S440Y (human); test: SEC-MALS; purified antibody in solution; monomeric peak and a ∼900 kDa peak

Sequence of human FcγRIIA receptor, Arg131 allotype (on transfected Expi293F cells) (human) (P12318 other isoform, or with tags, fused parts or gaps): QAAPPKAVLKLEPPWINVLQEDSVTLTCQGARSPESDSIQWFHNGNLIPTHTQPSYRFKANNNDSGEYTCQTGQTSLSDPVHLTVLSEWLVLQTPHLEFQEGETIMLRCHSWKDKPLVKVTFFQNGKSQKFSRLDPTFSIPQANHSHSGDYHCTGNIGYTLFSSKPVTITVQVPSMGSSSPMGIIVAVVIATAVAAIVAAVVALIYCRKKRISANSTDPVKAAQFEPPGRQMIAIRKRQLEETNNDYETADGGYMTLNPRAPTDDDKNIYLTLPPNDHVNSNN

B1: OX40SF2IgG1S267E/L328F (antibody, V domains shown)
VH: QVQLVQSGAEVKKPGSSVKVSCKASGYTFKDYTMHWVRQAPGQGLEWIGGIYPNNGGSTYNQNFKDRVTLTADKSTSTAYMELSSLRSEDTAVYYCARMGYHGPHLDFDVWGQGTTVTVSS
VL: DIQMTQSPSSLSASVGDRVTITCKASQDVGAAVAWYQQKPGKAPKLLIYWASTRHTGVPSRFSGSGSGTDFTLTISSLQPEDFATYYCQQYINYPLTFGGGTKVEIK
[1]
  EC50: 3.1 nM
[2]
  EC50: 1.5 nM
  fold more potent EC50 than OX40SF2IgG1: 20 fold
[3]
  agonism in the HEK-Blue NF-κB reporter assay, HEK-Blue:OX40 cells co-cultured with Raji cells, 10 to 1000 ng/ml antibody; decreased when Raji cells were pre-blocked with 5 μg/ml 2B6: > 2 fold

B2: OX40SF2IgG1E345R/E430G/S440Y (antibody, V domains shown)
VH: B1 VH
VL: B1 VL
[4]
  stoichiometry N: 6
